Data as given in patent US20250352667A1.
Blank lines part the entries; values can stand above or below the binder they belong to.

What was measured:
[1] = molecular target: KEAP1 (wild-type full-length), His-tagged (human) (UniProt Q14145); assay: AlphaScreen; 19.2 nM FLAG-NRF2, 150 nM His-KEAP1; signal against NRF2 only; control for I28V
[2] = molecular target: KEAP1 (wild-type full-length), His-tagged (human) (UniProt Q14145); assay: AlphaScreen; FLAG-NRF2 wt isoform 1 38.4 nM, His-KEAP1 150 nM; Rep 3; positive control for I86V
[3] = molecular target: KEAP1 (wild-type full-length), His-tagged (human) (UniProt Q14145); assay: AlphaScreen; 76.8 nM FLAG-NRF2, 150 nM His-KEAP1; Rep 2; control for I28V
[4] = molecular target: KEAP1 (wild-type full-length), His-tagged (human) (UniProt Q14145); assay: AlphaScreen; NRF2 wt isoform 1 19.2 nM, KEAP1 150 nM; signal against NRF2-only control; control for Q75R
[5] = molecular target: KEAP1 (wild-type full-length), His-tagged (human) (UniProt Q14145); assay: AlphaScreen; 153.6 nM FLAG-NRF2, 150 nM His-KEAP1; Rep 3; control for I86V
[6] = molecular target: KEAP1 (wild-type full-length), His-tagged (human) (UniProt Q14145); assay: AlphaScreen; NRF2 wt isoform 1 19.2 nM, KEAP1 150 nM; set as the 100 % reference for Q75R
[7] = molecular target: KEAP1 (wild-type full-length), His-tagged (human) (UniProt Q14145); assay: AlphaScreen; mean over 9.6, 19.2 and 38.4 nM NRF2 wt isoform 1, KEAP1 150 nM; reference for Q75R
[8] = molecular target: KEAP1 (wild-type full-length), His-tagged (human) (UniProt Q14145); assay: AlphaScreen; 38.4 nM FLAG-NRF2, 150 nM His-KEAP1; Repeat 2 (same value as in Table 26)
[9] = molecular target: KEAP1 (wild-type full-length), His-tagged (human) (UniProt Q14145); assay: AlphaScreen; 307.2 nM FLAG-NRF2, 150 nM His-KEAP1; signal against NRF2 only; control for I28V
[10] = molecular target: KEAP1 (wild-type full-length), His-tagged (human) (UniProt Q14145); assay: AlphaScreen; 4.8 nM FLAG-NRF2, 150 nM His-KEAP1; Rep 3; control for I86V
[11] = molecular target: KEAP1 (wild-type full-length), His-tagged (human) (UniProt Q14145); assay: AlphaScreen; 1228.8 nM FLAG-NRF2, 150 nM His-KEAP1; Rep 3; control for I86V
[12] = molecular target: KEAP1 (wild-type full-length), His-tagged (human) (UniProt Q14145); assay: AlphaScreen; FLAG-NRF2 wt isoform 1 153.6 nM, His-KEAP1 150 nM; Rep 1; positive control for Q75R
[13] = molecular target: KEAP1 (wild-type full-length), His-tagged (human) (UniProt Q14145); assay: AlphaScreen; 1228.8 nM FLAG-NRF2, 150 nM His-KEAP1; Rep 1; control for I86V
[14] = molecular target: KEAP1 (wild-type full-length), His-tagged (human) (UniProt Q14145); assay: AlphaScreen; FLAG-NRF2 wt isoform 1 614.4 nM, His-KEAP1 150 nM; Rep 2; positive control for Q75R
[15] = molecular target: KEAP1 (wild-type full-length), His-tagged (human) (UniProt Q14145); assay: AlphaScreen; 153.6 nM FLAG-NRF2, 150 nM His-KEAP1; Rep 2; control for I86V
[16] = molecular target: KEAP1 (wild-type full-length), His-tagged (human) (UniProt Q14145); assay: AlphaScreen; 2.4 nM FLAG-NRF2, 150 nM His-KEAP1; Rep 3; control for I86V
[17] = molecular target: KEAP1 (wild-type full-length), His-tagged (human) (UniProt Q14145); assay: AlphaScreen; FLAG-NRF2 wt isoform 1 9.6 nM, His-KEAP1 150 nM; Rep 1; positive control for I86V
[18] = molecular target: KEAP1 (wild-type full-length), His-tagged (human) (UniProt Q14145); assay: AlphaScreen; FLAG-NRF2 I86V 76.8 nM, His-KEAP1 150 nM; Rep 1
[19] = molecular target: KEAP1 (wild-type full-length), His-tagged (human) (UniProt Q14145); assay: AlphaScreen; FLAG-NRF2 I86V 1228.8 nM, His-KEAP1 150 nM; Rep 2
[20] = molecular target: KEAP1 (wild-type full-length), His-tagged (human) (UniProt Q14145); assay: AlphaScreen; FLAG-NRF2 Q75R 614.4 nM, His-KEAP1 150 nM; Rep 1
[21] = molecular target: KEAP1 (wild-type full-length), His-tagged (human) (UniProt Q14145); assay: AlphaScreen; FLAG-NRF2 Q75R 38.4 nM, His-KEAP1 150 nM; Rep 1
[22] = molecular target: KEAP1 (wild-type full-length), His-tagged (human) (UniProt Q14145); assay: AlphaScreen; NRF2 Q75R 614.4 nM, KEAP1 150 nM; signal against NRF2-only control
[23] = molecular target: KEAP1 (wild-type full-length), His-tagged (human) (UniProt Q14145); assay: AlphaScreen; NRF2 Q75R 38.4 nM, KEAP1 150 nM; relative to wild-type NRF2 isoform 1 (100 %)
[24] = molecular target: KEAP1 (wild-type full-length), His-tagged (human) (UniProt Q14145); assay: AlphaScreen; 153.6 nM FLAG-NRF2, 150 nM His-KEAP1; Rep 2
[25] = molecular target: KEAP1 (wild-type full-length), His-tagged (human) (UniProt Q14145); assay: AlphaScreen; 9.6 nM FLAG-NRF2, 150 nM His-KEAP1; Repeat 1 (same value as in Table 27)
[26] = molecular target: KEAP1 (wild-type full-length), His-tagged (human) (UniProt Q14145); assay: AlphaScreen; 19.2 nM FLAG-NRF2, 150 nM His-KEAP1; Rep 2
[27] = molecular target: KEAP1 (wild-type full-length), His-tagged (human) (UniProt Q14145); assay: AlphaScreen; 38.4 nM FLAG-NRF2, 150 nM His-KEAP1; Repeat 1 (same value as in Table 27)

KEAP1 (wild-type full-length), His-tagged (human), sequence (Q14145 2-624 limits assumed): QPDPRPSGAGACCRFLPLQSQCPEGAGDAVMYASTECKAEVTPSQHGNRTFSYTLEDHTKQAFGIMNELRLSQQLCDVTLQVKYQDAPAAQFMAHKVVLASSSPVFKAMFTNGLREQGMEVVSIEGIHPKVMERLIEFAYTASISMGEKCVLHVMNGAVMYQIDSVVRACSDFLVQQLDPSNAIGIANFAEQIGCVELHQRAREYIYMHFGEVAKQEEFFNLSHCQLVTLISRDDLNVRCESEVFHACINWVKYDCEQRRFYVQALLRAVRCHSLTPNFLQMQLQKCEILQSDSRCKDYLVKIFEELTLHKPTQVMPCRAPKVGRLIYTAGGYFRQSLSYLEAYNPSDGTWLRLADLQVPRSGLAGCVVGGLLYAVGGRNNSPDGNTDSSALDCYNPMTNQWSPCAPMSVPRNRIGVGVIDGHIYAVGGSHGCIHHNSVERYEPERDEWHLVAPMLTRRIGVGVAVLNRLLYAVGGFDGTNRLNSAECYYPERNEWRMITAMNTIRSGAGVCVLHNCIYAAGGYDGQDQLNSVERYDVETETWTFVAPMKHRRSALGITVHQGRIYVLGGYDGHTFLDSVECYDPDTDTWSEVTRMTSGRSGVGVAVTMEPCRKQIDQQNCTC

B2: NRF2 isoform 1 (I86V full-length), FLAG-tagged (protein)
chain: MMDLELPPPGLPSQQDMDLIDILWRQDIDLGVSREVFDFSQRRKEYELEKQKKLEKERQEQLQKEQEKAFFAQLQLDEETGEFLPVQPAQHIQSETSGSANYSQVAHIPKSDALYFDDCMQLLAQTFPFVDDNEVSSATFQSLVPDIPGHIESPVFIATNQAQSPETSVAQVAPVDLDGMQQDIEQVWEELLSIPELQCLNIENDKLVETTMVPSPEAKLTEVDNYHFYSSIPSMEKEVGNCSPHFLNAFEDSFSSILSTEDPNQLTVNSLNSDATVNTDFGDEFYSAFIAEPSISNSMPSPATLSHSLSELLNGPIDVSDLSLCKAFNQNHPESTAEFNDSDSGISLNTSPSVASPEHSVESSSYGDTLLGLSDSEVEELDSAPGSVKQNGPKTPVHSSGDMVQPLSPSQGQSTHVHDAQCENTPEKELPVSPGHRKTPFTKDKHSSRLEAHLTRDELRAKALHIPFPVEKIINLPVVDFNEMMSKEQFNEAQLALIRDIRRRGKNKVAAQNCRKRKLENIVELEQDLDHLKDEKEKLLKEKGENDKSLHLLKKQLSTLYLEVFSMLRDEDGKPYSPSEYSLQQTRDGNVFLVPKSKKPDVKKN
A-counts (NRF2 plus KEAP1) [18]: 2810 A-counts
A-counts (NRF2 plus KEAP1) [19]: 1580 A-counts

B4: NRF2 isoform 1 (I28V full-length), FLAG-tagged (protein)
chain: MMDLELPPPGLPSQQDMDLIDILWRQDVDLGVSREVFDFSQRRKEYELEKQKKLEKERQEQLQKEQEKAFFAQLQLDEETGEFLPIQPAQHIQSETSGSANYSQVAHIPKSDALYFDDCMQLLAQTFPFVDDNEVSSATFQSLVPDIPGHIESPVFIATNQAQSPETSVAQVAPVDLDGMQQDIEQVWEELLSIPELQCLNIENDKLVETTMVPSPEAKLTEVDNYHFYSSIPSMEKEVGNCSPHFLNAFEDSFSSILSTEDPNQLTVNSLNSDATVNTDFGDEFYSAFIAEPSISNSMPSPATLSHSLSELLNGPIDVSDLSLCKAFNQNHPESTAEFNDSDSGISLNTSPSVASPEHSVESSSYGDTLLGLSDSEVEELDSAPGSVKQNGPKTPVHSSGDMVQPLSPSQGQSTHVHDAQCENTPEKELPVSPGHRKTPFTKDKHSSRLEAHLTRDELRAKALHIPFPVEKIINLPVVDFNEMMSKEQFNEAQLALIRDIRRRGKNKVAAQNCRKRKLENIVELEQDLDHLKDEKEKLLKEKGENDKSLHLLKKQLSTLYLEVFSMLRDEDGKPYSPSEYSLQQTRDGNVFLVPKSKKPDVKKN
A-counts [24]: 1440 A-counts
A-counts [25]: 1570 A-counts
A-counts [26]: 1700 A-counts
A-counts [27]: 1690 A-counts

Now from value to binder:

S/N [1]: 4.2
A-counts (NRF2 plus KEAP1) [2]: 3130 A-counts
A-counts [3]: 1970 A-counts
S/N [4]: 3.4
A-counts [5]: 2990 A-counts
Binding Percentage [6]: 100%
Average Binding [7]: 100%
A-counts [8]: 1900 A-counts
S/N [9]: 1.3
A-counts [10]: 1860 A-counts
A-counts [11]: 2610 A-counts
A-counts (NRF2 plus KEAP1) [12]: 1380 A-counts
A-counts [13]: 2930 A-counts
A-counts (NRF2 plus KEAP1) [14]: 1710 A-counts
A-counts [15]: 3090 A-counts
A-counts [16]: 1100 A-counts
A-counts (NRF2 plus KEAP1) [17]: 2640 A-counts
B1: NRF2 isoform 1 (wild-type full-length), FLAG-tagged (protein)
chain: MMDLELPPPGLPSQQDMDLIDILWRQDIDLGVSREVFDFSQRRKEYELEKQKKLEKERQEQLQKEQEKAFFAQLQLDEETGEFLPIQPAQHIQSETSGSANYSQVAHIPKSDALYFDDCMQLLAQTFPFVDDNEVSSATFQSLVPDIPGHIESPVFIATNQAQSPETSVAQVAPVDLDGMQQDIEQVWEELLSIPELQCLNIENDKLVETTMVPSPEAKLTEVDNYHFYSSIPSMEKEVGNCSPHFLNAFEDSFSSILSTEDPNQLTVNSLNSDATVNTDFGDEFYSAFIAEPSISNSMPSPATLSHSLSELLNGPIDVSDLSLCKAFNQNHPESTAEFNDSDSGISLNTSPSVASPEHSVESSSYGDTLLGLSDSEVEELDSAPGSVKQNGPKTPVHSSGDMVQPLSPSQGQSTHVHDAQCENTPEKELPVSPGHRKTPFTKDKHSSRLEAHLTRDELRAKALHIPFPVEKIINLPVVDFNEMMSKEQFNEAQLALIRDIRRRGKNKVAAQNCRKRKLENIVELEQDLDHLKDEKEKLLKEKGENDKSLHLLKKQLSTLYLEVFSMLRDEDGKPYSPSEYSLQQTRDGNVFLVPKSKKPDVKKN

A-counts (NRF2 plus KEAP1) [20]: 855 A-counts
A-counts (NRF2 plus KEAP1) [21]: 1200 A-counts
S/N [22]: 0.8
Binding Percentage [23]: 73.4%
B3: NRF2 isoform 1 (Q75R full-length), FLAG-tagged (protein)
chain: MMDLELPPPGLPSQQDMDLIDILWRQDIDLGVSREVFDFSQRRKEYELEKQKKLEKERQEQLQKEQEKAFFAQLRLDEETGEFLPIQPAQHIQSETSGSANYSQVAHIPKSDALYFDDCMQLLAQTFPFVDDNEVSSATFQSLVPDIPGHIESPVFIATNQAQSPETSVAQVAPVDLDGMQQDIEQVWEELLSIPELQCLNIENDKLVETTMVPSPEAKLTEVDNYHFYSSIPSMEKEVGNCSPHFLNAFEDSFSSILSTEDPNQLTVNSLNSDATVNTDFGDEFYSAFIAEPSISNSMPSPATLSHSLSELLNGPIDVSDLSLCKAFNQNHPESTAEFNDSDSGISLNTSPSVASPEHSVESSSYGDTLLGLSDSEVEELDSAPGSVKQNGPKTPVHSSGDMVQPLSPSQGQSTHVHDAQCENTPEKELPVSPGHRKTPFTKDKHSSRLEAHLTRDELRAKALHIPFPVEKIINLPVVDFNEMMSKEQFNEAQLALIRDIRRRGKNKVAAQNCRKRKLENIVELEQDLDHLKDEKEKLLKEKGENDKSLHLLKKQLSTLYLEVFSMLRDEDGKPYSPSEYSLQQTRDGNVFLVPKSKKPDVKKN
